Square brackets hold non-standard residues; d marks the D form. Ends that are not written are not given here. Tyr(3-NO2) = N[C@@H](Cc1ccc(O)c([N+](=O)[O-])c1)C(=O)O; Abz = aminobenzoic acid; Dap = NC[C@H](N)C(=O)O
Biological target: human glandular kallikrein 2 (hK2), enzymatically active (human), P20151
Test: cell-based or functional assay

time required to generate clearly detectable fluorescence on the beads: 4 to 5 h
B1: Y′GKAFRL-Dap-F-K′-PEGA (SEQ ID NO:53) (peptide)
peptide: [Tyr(3-NO2)]GKAFRL[Dap]FK(Abz)-{PEGA resin}
